Measurements reported in US11904004B2, “Anti-CD277 antibodies” (INSTITUT NATIONAL DE LA SANTE ET DE LA RECHERCHE MEDICALE …, priority 2010, dated 2024).

Tests used:
Format in all cases: cell-based, human
[1] = test system: monocytes; test: Costimulatory molecules expression on monocytes, flow cytometry
Procedure: (§1) Blood samples were obtained from 5 healthy volunteers enrolled among the staff members, after informed consent. Monocytes were separated from peripheral blood mononuclear cells, and isolated using the MACS CD14 isolation kit (Miltenyi Biotech, Auburn, Calif. USA). Monocytes were cultured for 5 days with 200 ng/ml of recombinant human GM-CSF and 10 ng/ml recombinant human IL-4 (Schering-Plough Research Institute). These cells were termed immature dendritic cells (iDC). To achieve the stimulation, monocytes and iDC were cultured with 10 ng/ml of LPS, ligand for TLR4, 30 μg/ml of 8848 (Sigma-Aldrich, Milano, Italy), ligand for TLR7/8 and with […] of poly (I:C) (Sigma-Aldrich), ligand for TLR3, and were harvested after 48 h. The cells were cultured in RPMI 1640 supplemented with 10% heat-inactivated FCS, 5 mM L-glutamine and 50 IU/ml penicillin-streptomycin (from here on referred to as complete medium).
Monocytes and iDCs before and after stimulation were analysed by imunofluorescence flow cytometry (FACScalibur Becton Dickinson, Milano, Italy) to verify their activation state. To this end, mAb specific for CD80, CD86, HLA-DR, CD1a, CD14 (BD Becton Dickinson), BT3 (clone 20.1, IgG1) and BT3 Fab2 were previously selected, purified and characterised (Bensussan and Olive, 2005, Compte et al., 2004) or irrelevant molecules (anti-CD19, Becton Dickinson, and anti-CD31, clone Moon-1, provided by F. Malavasi, both IgG1) were used. All the available anti-BT3 mAbs are unable to discriminate among the three members of this family (BT3.1, BT3.2, or BT3.3), probably due to their high sequence homology (Compte et al., 2004, Bensussan and Olive, 2005). As further control, to block the possible effect of trace amounts of endotoxin, polymyxin B (10 μg/ml, Sigma-Aldrich) was added to the anti-BT3 mAb 20.1 before adding the cells.

[2] = test system: iDC; test: Costimulatory molecules expression on iDC, flow cytometry; conditions: coated mAb
Procedure: as §1
Monocytes and iDCs before and after stimulation were analysed by imunofluorescence flow cytometry (FACScalibur Becton Dickinson, Milano, Italy) to verify their activation state. […]

[3] = test system: CD4+ T cells; test: AKT and ERK phosphorylation, phosphoflow
Procedure: Human CD4^+ T cells were purified by negative selection from PBMCs using magnetic beads (MILTENYI BIOTEC®) according to the manufacturer's protocol. CD4 T cells were routinely more than 97% pure. Cells were incubated 24 hours in RPMI 1640 10% FBS at 37° C.
CD4^+ T cells were washed and stimulated at different times (2, 5, 10 and 30 minutes) with aAPC at a ratio of 1:3 (cells to beads) comprised of magnetic beads (DYNABEADS® M-450 Epoxy, Dynal Biotech) were coated with the following mAbs: anti-CD3 (OKT3), anti-human CD28 (CD28.2), and/or various concentrations of anti-human CD277 (CD277. 20.1 clone) or isotype control IgG1. These aAPCs were coated with suboptimal anti-CD3 Ab (5%), suboptimal levels of anti-CD28 Ab (10%), and either IgG1 Ab (CD3/CD28/IgG1), anti-CD277.20.1 Ab (CD3/CD28/CD277.20.1+IgG1), constituting the remaining 85% of protein added to the bead. The amount of protein was kept constant at […] by the addition of control IgG1. We examined the effect of mAbs CD277 clones engagement on AKT and ERK phosphorylation in CD4+T cells by PHOSPHOFLOW® proteomic method, which uses state-specific antibodies to detect target phosphoproteins by fluorescence-activated cell sorting (FACS). We assessed the activity of the signalling pathways after exposure of the cells to beads stimulations. We apply a sandwich-labeling method, which involves the application of a biotin-conjugated secondary antibody followed by detection with fluorescently conjugated streptavidin. […] Cells were permeabilized, fixed and analyzed after intracellular staining of the target phosphproteins (AKT and ERK) by the use of CYTOFIX/CYTOPERM® KIT and perm/wash buffer (BD Biosciences).

[4] = test system: CD4+ T cells; test: Functional assay on CD4+ T cells with aAPC, CFSE labeling and cytokine ELISA
Procedure: Human CD4^+ T cells were purified by negative selection from PBMCs using magnetic beads (Miltenyi Biotec) according to the manufacturer's protocol. CD4+ T cells were routinely more than 97% pure.
CD4^+ T cells were labelled with 0.5 μM CFSE (Invitrogen) for 10 min at 37° C., washed and stimulated (1.5×10^5 cells/well) with aAPC at a ratio of 1:1 (cells to beads) comprised of magnetic beads in triplicate in 96-well round-bottom plates (Falcon; BD Biosciences). Cultures were incubated at 37° C., 5% CO2 for 5 days and then proliferation of CFSE labelled CD4^+ T cells were measured by flow cytometry (FACS Canto, […]).
Magnetic beads (DYNABEADS® M-450 Epoxy, Dynal Biotech) were coated with the following mAbs as described in Serriari et al. (serriari, ji 2010): anti-CD3 (OKT3), anti-human CD28 (CD28.2), and/or various concentrations of anti-human CD277 (CD277, 20.1) or IgG1 or anti-MHC class I (MHC I) (YJ4) or IgG1. These aAPCs were coated with suboptimal anti-CD3 Ab (5%), suboptimal levels of anti-CD28 Ab (10%), and either IgG1 Ab (CD3/CD28/IgG1), anti-CD277 Ab (CD3/CD28/CD277+IgG1) or anti-MHC class I (CD3/28/anti-MHC class I+IgG1), constituting the remaining 85% of protein added to the bead. The amount of protein was kept constant at […] by the addition of control IgG 1. […]

[5] = antibody-coated beads, anti-CD3 plus anti-CD277
[6] = with anti-CD3 plus anti-CD28, 2, 5, 10 and 30 minutes, dose and time dependent

B1: mAb 20.1: murine anti-CD277 antibody obtainable from the hybridoma CNCM I-4402; agonist (antibody, V domains shown)
VH: QVQLQQSGAELVKPGASVKLSCKASGYTFTRYYLYWVKQRPGQGLEWIGEINPNNGGTKFNEKFKSKATLTVDKSSRTTYIQLSSLTSEDSAVYYCSREDDYDGTPDAMDYWGQGTAVTVSS
VL: DIQMNQSPSSLSASLGDTITITCHASQNINLWLSWYQQRPGNIPKLLIYRASNLHTGVPSRFSGSGSATGFTLTISSLQPEDIATYYCQQGHSYPYTFGGGTKLDIK
[1]; coated mAb
  CD80 and HLA-DR molecules at the monocyte surface: up-regulation
[1]; coated mAb, 24 h stimulation
  cell surface costimulatory molecule CD86 on monocytes: up-regulation
[1]; polymyxin B 10 μg/ml
  activating effect in the presence of polymyxin B: maintained
[1]; soluble mAb, no cross-linking, data not shown
  cellular activation with non-coated (soluble) mAb: no effect
[2]
  expression of CD80, CD86 and HLA-DR on iDC: increased expression
[3]; [5]
  phosphorylation of AKT: induced the phosphorylation
  phosphorylation of ERK: induced the phosphorylation
[3]; [6]
  phosphorylation of AKT induced by CD3+CD28 stimulation: strongly up regulated
  phosphorylation of ERK induced by CD3+CD28 stimulation: strongly up regulated
[4]; dose-dependent, supernatants day 2
  secretion of cytokines induced by anti-CD3 and anti-CD28 stimulation (INFg, IL-2, IL-10): increased
[4]; with anti-CD3 plus anti-CD28 on beads, day 5, anti-CD277 at 17 μg/ml
  cells entered division (CFSE dilution): 90%
